Data set [1] in a line: Pharmacokinetics: plasma and brain concentration after IP injection. Type of data set: in vivo, mouse. Particulars: for Brain concentration, individual mice 1-3 / Plasma concentration, individual mice 1-3: individual animals, listed as setmelanotide. How it is done: FIG. 5. Pharmacokinetic data for an exemplary peptide relative to setmelanotide. Peptides at 1.5 mg/mL in PBS containing 10% DMSO and 10% PEG-400 were given by IP injection (15 mg/kg) to female CD-1 mice (n=15). At the given time points (0.5 h, 2 h, 4 h, 7 h and 24 h), brain samples were taken out and frozen at −80° C. immediately for later preparation and analysis, and blood samples were collected using heparinized calibrated pipettes. Blood samples were centrifuged at 15000 rpm for 10 min. Subsequently, blood plasma was collected from the upper layer. The plasma was frozen at −80° C. for later analysis. Peptide concentrations at times indicated were determined by LC MS/MS, using non-zero standards in blank Plasma and Brain Samples.
The drug at 1.5 mg/mL in PBS containing 10% DMSO and 10% PEG-400 was given by IP injection (15 mg/kg). At the given time points (0.5 h, 2 h, 4 h, 7 h and 24 h), brain samples were taken out and frozen at −80° C. immediately for later preparation and analysis, and blood samples were collected using heparinized calibrated pipettes. Blood samples were centrifuged at 15000 rpm for 10 min. Subsequently, blood plasma was collected from the upper layer. The plasma was frozen at −80° C. for later analysis.
The analytical curves were constructed using non-zero standards in the blank Plasma and Brain Samples. A blank sample (matrix sample processed without internal standard) was used to exclude contamination. The linear regression analysis of CTX1227/setmelanotide were performed by plotting the peak area ratio (y) against the CTX1227/setmelanotide concentration (x) in ng/mL, respectively.

Data set [2] is described as follows: Plasma protein binding (Centrifree ultrafiltration). It counts as in vitro ADME. The procedure: Solutions of test compound in DMSO were prepared at 1 mM, 100 uM and 10 uM, 5 ul of each solution of test compound was added to 495 uL plasma, and incubated at 25° C. for 5 min. Sample was added to a Centrifree® device, then centrifuged at 2000× g for 20 min to obtain desired filtrate volume. Initial plasma samples and ultrafiltrates were subjected to LC-MS/MS. % Free peptide=(concentration of ultrafiltrates/concentration of plasma)×100%. % Bound=100%−% Free

A short description of a further data set: Mouse plasma stability. Type of data set: in vitro ADME. Particulars: pooled mouse plasma, 37° C. The procedure: FIG. 3. Results of plasma stability testing for control peptides. Compounds shown were incubated in mouse plasma at 37° C. at 1 μM concentrations. 40 ul aliquots were removed at the times indicated and the reactions stopped with the addition of 160 μL cold acetonitrile containing 200 ng/ml of peptide internal standard (IS). The incubation solution was centrifuged at 3500 rpm for 10 minutes to precipitate protein. LC/MS/MS analysis was used to determine the % peptide remaining.
Pooled mouse plasma was prepared and stored at −80° C, prior to use, 396 μL mouse plasma was incubated at 37° C. for 5 minutes in 1.5 mL microcentrifuge tubes. 4 μL of 100 μM test or control compound/peptide was added to each tube and incubated for 0.5, 15, 30, 60, 120, or 240 minutes. An aliquot of 40 μL of each reaction was stopped by the addition of 4 volume of cold acetonitrile containing 200 ng/mL of […] solution was centrifuged at 3500 rpm for 10 minutes to precipitate protein. The supernatant was used for LC/MS/MS analysis. The natural log peak area ratio (compound peak area/internal standard peak area) was plotted against time and the gradient of the line determined.

Data set [3] addresses T1, human MC4R receptor (human, UniProt P32245 1-332). Description: cell-based or functional assay.
Data set [4] concerns the target T2, human MC3R (human, UniProt P41968 1-323). Description: cell-based or functional assay.
Data set [5] concerns the target T1, human MC4R receptor. Description: cell-based or functional assay. The source holds these as a separate data set.
Data set [6] concerns the target plasma protein. Description: plasma ultrafiltration (Centrifree), LC-MS/MS; peptide 0.1 uM.
Data set [7] addresses plasma protein. In words: plasma ultrafiltration (Centrifree), LC-MS/MS; peptide 1.0 uM.
Data set [8] concerns the target plasma protein. Description: plasma ultrafiltration (Centrifree), LC-MS/MS; peptide 10.0 uM.
Data set [9] addresses T2, human MC3R. Description: cell-based or functional assay. The source holds these as a separate data set.

The values that follow come from patent US20240391954A1, “MC4R AGONIST PEPTIDES” (The Regents of the University of Michigan, priority 2021, published 2024).

Where “and” joins values, the source holds several entries; their conditions need not be identical. Equal values may be shown once. Read-outs that look alike come from different tables or passages of the source. Positions of bridges follow the written chain, without caps; N, C: chain ends. Non-standard residues stand in square brackets, D forms with d. dPhe(4-Br) = N[C@H](Cc1ccc(Br)cc1)C(=O)O; Cit = NC(=O)NCCC[C@H](N)C(=O)O; Nle = CCCC[C@H](N)C(=O)O; Aib = CC(C)(N)C(=O)O Some results are limits rather than exact numbers.

T1 sequence (P32245 whole entry): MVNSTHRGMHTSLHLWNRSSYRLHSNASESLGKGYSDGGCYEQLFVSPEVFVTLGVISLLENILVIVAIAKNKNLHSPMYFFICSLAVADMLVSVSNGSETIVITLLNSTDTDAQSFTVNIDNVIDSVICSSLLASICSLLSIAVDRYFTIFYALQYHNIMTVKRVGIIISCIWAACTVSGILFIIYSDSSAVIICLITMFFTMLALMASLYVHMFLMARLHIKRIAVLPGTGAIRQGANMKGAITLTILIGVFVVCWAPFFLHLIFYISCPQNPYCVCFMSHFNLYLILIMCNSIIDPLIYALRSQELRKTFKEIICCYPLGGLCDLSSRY
T2 sequence (P41968 whole entry): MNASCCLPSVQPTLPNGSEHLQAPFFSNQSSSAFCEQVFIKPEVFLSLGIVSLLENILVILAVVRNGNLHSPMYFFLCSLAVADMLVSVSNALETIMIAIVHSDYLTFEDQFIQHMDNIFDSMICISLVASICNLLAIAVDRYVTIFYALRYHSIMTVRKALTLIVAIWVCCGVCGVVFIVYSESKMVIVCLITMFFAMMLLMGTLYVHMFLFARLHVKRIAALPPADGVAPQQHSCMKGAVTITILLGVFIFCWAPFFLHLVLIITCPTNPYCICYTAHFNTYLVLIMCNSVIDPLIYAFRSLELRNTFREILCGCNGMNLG

`CC(=O)N[C@@H](CCCN=C(N)N)C(=O)N[C@H]1CSSC[C@H](C(N)=O)NC(=O)[C@H](Cc2c[nH]c3ccccc23)NC(=O)C(CCCN=C(N)N)NC(=O)[C@@H](Cc2ccccc2)NC(=O)[C@H](Cc2cnc[nH]2)NC(=O)[C@@H](C)NC1=O` (stereo partly drawn) [CTX-1200, Arg-cyclo(Cys-D-Ala-His-D-Phe-Arg-Trp-Cys), reference compound]: the “Brain concentration, individual mice 1-3” value in data set [1] (IP 15 mg/kg, 0.5 h, brain, 15 mg/kg) was 306.5 ng/g and 231.5 ng/g and 247.5 ng/g; in data set [1] (IP 15 mg/kg, 2 h, brain, 15 mg/kg), 207.5 ng/g and 121.5 ng/g and 220.5 ng/g; in data set [1] (IP 15 mg/kg, 4 h, brain, 15 mg/kg) it was “BLQ”; in data set [1] (IP 15 mg/kg, 7 h, brain, 15 mg/kg), “BlQ and BLQ (2×)”; in data set [1] (IP 15 mg/kg, 24 h, brain, 15 mg/kg) it was “BlQ and BLQ (2×)”. For the same molecule, the “Plasma concentration, individual mice 1-3” value was 67000 ng/mL and 37200 ng/mL and 25800 ng/mL in [1] (IP 15 mg/kg, 0.5 h, plasma, 15 mg/kg); 7190 ng/mL and 11000 ng/mL and 4580 ng/mL in [1] (IP 15 mg/kg, 2 h, plasma, 15 mg/kg); 455 ng/mL and 9590 ng/mL and 17.8 ng/mL in data set [1] (IP 15 mg/kg, 4 h, plasma, 15 mg/kg); 64.2 ng/mL and 69.3 ng/mL and 55.3 ng/mL in data set [1] (IP 15 mg/kg, 7 h, plasma, 15 mg/kg); 8.04 ng/mL and 7.37 ng/mL and 8.81 ng/mL in [1] (IP 15 mg/kg, 24 h, plasma, 15 mg/kg). The molecule also returned a tissue level at time at 0.5 h in [1] (female, CD-1, mouse, brain, ip, 15 mg/kg, mice, 0.5 h, mean of 3) of 262 ng/g. Also, the tissue level at time at 2 h in [1] (female, CD-1, mouse, brain, ip, 15 mg/kg, mice, 2 h, mean of 3) amounted to 183 ng/g. In addition, the level at 0.5 h in data set [1] (female, CD-1, mouse, mice, IP 15 mg/kg, 0.5 h, plasma, mean of 3) amounted to 43300 ng/mL. In data set [1] (female, CD-1, mouse, mice, IP 15 mg/kg, 2 h, plasma, mean of 3), this molecule came in with a level at 2 h of 7590 ng/mL. The level at 4 h in data set [1] (female, CD-1, mouse, mice, IP 15 mg/kg, 4 h, plasma, mean of 3) turned out to be 3350 ng/mL. The same molecule came in with a level at 7 h in [1] (female, CD-1, mouse, mice, IP 15 mg/kg, 7 h, plasma, mean of 3) of 62.9 ng/mL. Moreover, in [1] (female, CD-1, mouse, mice, IP 15 mg/kg, 24 h, plasma, mean of 3, read-out: Plasma concentration, Mean), the level at 24 h was 8.07 ng/mL. For the same molecule, the unbound share (fraction unbound) (in general, the share of the substance not bound to proteins or other matrix) at 5 min, 0.1 µM in data set [2] (0.1 uM) is 0.57. In addition, the fraction unbound at 5 min, 1 µM in data set [2] (1.0 uM) is 0.43. For the same molecule, in data set [2] (10.0 uM), the fraction unbound at 5 min, 10 µM is 0.39. Besides, in “Mouse plasma stability”, the half-life (commonly the time needed for the level to fall by half in the phase considered) at 1 µM was above 3 h.

For the molecule Ac-RC[dA][Cit][dF]RWC-NH2 (disulfide 2-8) [CTX-1285], the “% max activation” value with human MC4R receptor [3] was 94%; with human MC3R [4], 28%. The “cAMP EC50” value turned out to be 1.7 nM with human MC4R receptor [3] and 4.9 nM in the data set with human MC3R [4]. For the same molecule, the “MC4R selectivity vs MC1R” value with human MC4R receptor [5] was determined as 134. Moreover, the “MC4R selectivity vs MC3R” value with human MC4R receptor [5] is 2.9. In addition, the Protein Binding (%) in the data set with plasma protein [6] came to 45%; with plasma protein [7], 39%; with plasma protein [8], 41%.

B1: CTX-1246 (peptide)
peptide: Ac-RC[Aib]R[dPhe(4-Br)]R[dW]C-NH2
modifications: disulfide 2-8
SMILES: CC(=O)N[C@@H](CCCNC(=N)N)C(=O)N[C@H]1CSSC[C@@H](C(N)=O)NC(=O)[C@@H](Cc2c[nH]c3ccccc23)NC(=O)[C@H](CCCNC(=N)N)NC(=O)[C@@H](Cc2ccc(Br)cc2)NC(=O)[C@H](CCCNC(=N)N)NC(=O)C(C)(C)NC1=O
On to B1, for which the “% max activation” value with human MC3R [9] was found to be 21%. The Protein Binding (%) in the data set with plasma protein [6] worked out at 73%; in the data set with plasma protein [7] it was 44%; in the data set with plasma protein [8], 43%.

B2: CTX-1228 (peptide)
peptide: Ac-R[Nle]CR[dF]RWC-NH2
modifications: disulfide 3-8
SMILES: CCCC[C@H](NC(=O)[C@H](CCCNC(=N)N)NC(C)=O)C(=O)N[C@H]1CSSC[C@@H](C(N)=O)NC(=O)[C@H](Cc2c[nH]c3ccccc23)NC(=O)[C@H](CCCNC(=N)N)NC(=O)[C@@H](Cc2ccccc2)NC(=O)[C@H](CCCNC(=N)N)NC1=O
As for B2, the “% max activation” value in the data set with human MC4R receptor [3] was 102%; in the data set with human MC3R [4] it was 93%. Besides, the entries for the “cAMP EC50” value in the data set with human MC4R receptor [3] and with human MC3R [4] were 0.2 nM and 1.6 nM, respectively. Besides, the “MC4R selectivity vs MC1R” value in the data set with human MC4R receptor [5] was 3.16. Besides, the “MC4R selectivity vs MC3R” value with human MC4R receptor [5] amounted to 8.38. For the same molecule, the values for the Protein Binding (%) in the data set with plasma protein [6], with plasma protein [7] and in the data set with plasma protein [8] were 37%, 39% and 39%, respectively.

As for Ac-RCAR[dF]R[dW]C-NH2 (disulfide 2-8) [CTX-1268], the “% max activation” value with human MC4R receptor [3] amounted to 96%; in the data set with human MC3R [4] it was 44%. In addition, the “cAMP EC50” value with human MC4R receptor [3] amounted to 7 nM; in the data set with human MC3R [4] it was 211 nM. The “MC4R selectivity vs MC1R” value in the data set with human MC4R receptor [5] is 6.59. Moreover, the “MC4R selectivity vs MC3R” value in the data set with human MC4R receptor [5] turned out to be 30. For the same molecule, the Protein Binding (%) with plasma protein [6] turned out to be 52%; with plasma protein [7], 58%; with plasma protein [8], 62%.

B3: CTX-1227 (peptide)
peptide: Ac-R[Nle]CH[dF]RWC-NH2
modifications: disulfide 3-8
SMILES: CCCC[C@H](NC(=O)[C@H](CCCNC(=N)N)NC(C)=O)C(=O)N[C@H]1CSSC[C@@H](C(N)=O)NC(=O)[C@H](Cc2c[nH]c3ccccc23)NC(=O)[C@H](CCCNC(=N)N)NC(=O)[C@@H](Cc2ccccc2)NC(=O)[C@H](Cc2c[nH]cn2)NC1=O
For the molecule B3, the figures for the “% max activation” value with human MC4R receptor [3] and with human MC3R [4] were 103% and 96%, respectively. For the same molecule, the entries for the “cAMP EC50” value with human MC4R receptor [3] and with human MC3R [4] were 0.3 nM and 2.8 nM, respectively. The “MC4R selectivity vs MC1R” value in the data set with human MC4R receptor [5] was determined as 0.92. Also, the “MC4R selectivity vs MC3R” value in the data set with human MC4R receptor [5] turned out to be 11. Moreover, the results for the Protein Binding (%) with plasma protein [6], in the data set with plasma protein [7] and with plasma protein [8] were 50%, 47% and 54%, respectively.

B4: CTX-1211 (peptide)
peptide: Ac-RC[dA]R[dF]RWC-NH2
modifications: disulfide 2-8
SMILES: CC(=O)N[C@@H](CCCNC(=N)N)C(=O)N[C@H]1CSSC[C@@H](C(N)=O)NC(=O)[C@H](Cc2c[nH]c3ccccc23)NC(=O)[C@H](CCCNC(=N)N)NC(=O)[C@@H](Cc2ccccc2)NC(=O)[C@H](CCCNC(=N)N)NC(=O)[C@@H](C)NC1=O
Take B4: the “% max activation” value in the data set with human MC4R receptor [3] was 96%; in the data set with human MC3R [4], 91%. The results for the “cAMP EC50” value in the data set with human MC4R receptor [3] and with human MC3R [4] were 0.38 nM and 2.1 nM, respectively. The “MC4R selectivity vs MC1R” value in the data set with human MC4R receptor [5] was 3.12. In addition, in the data set with human MC4R receptor [5], the “MC4R selectivity vs MC3R” value came out at 5.49. For the same molecule, the figures for the Protein Binding (%) with plasma protein [6], with plasma protein [7] and with plasma protein [8] were 51%, 63% and 61%, respectively.
